Source: patent publication US20070020743A1, “Undecaprenyl pyrophosphate synthase (upps)enzyme and methods of use” (priority 2001, published 2007)

Legend:
[1] = tested on: C=C(C)CCO[P@@](=O)(O)OP(=O)(O)O; assay: purified protein, by the assay type; details: other: substrate Km of S. pneumoniae UPPS; pH optimum 7.5-8.0; pH 7.5; 25.0 °C
[2] = tested on: CC(C)=CCC/C(C)=C/CC/C(C)=C/CO[P@@](=O)(O)OP(=O)(O)O; assay: purified protein, by the assay type; details: other: substrate Km of S. pneumoniae UPPS; pH optimum 7.5-8.0; pH 7.5; 25.0 °C
Experimental: The reaction was incubated at 25° C. for 25 min and stopped by addition of EDTA to 50 mM. The reaction was extracted with equal volume of 1-butanol and the radioactivity in the butanol phase was measured with a liquid scintillation counter (Shimizu, N., T. Koyama, and K. Ogura. (1998) J. Biol. Chem. 273:19476-19481).

S. pneumoniae UPPS (Streptococcus pneumoniae TIGR4)
Km [1]: 3.6 µM
Km [2]: 0.5 µM
